These results are taken from publication PMC12431651.

Test in all cases: ITC; MED25 ACID (200 or 250 µM, syringe) titrated into NS1 (20 µM, cell); 20 mM Tris pH 8.0, 200 mM NaCl, 1 mM TCEP, 25°C; one set of sites model
(In general: In ITC the heat of successive injections is recorded.)

Experiment [1] has as its target NS1 L133A (human respiratory syncytial virus subgroup A, Long strain).
The target of experiment [2] is RSV NS1, full-length wild type (aa 1–139) (human respiratory syncytial virus subgroup A, Long strain).
Experiment [3] concerns the target NS1 F56A (human respiratory syncytial virus subgroup A, Long strain).
Experiment [4] concerns the target NS1 E110A (human respiratory syncytial virus subgroup A, Long strain).
Experiment [5] concerns the target NS1 M122A (human respiratory syncytial virus subgroup A, Long strain).
Experiment [6] deals with NS1 I54A (human respiratory syncytial virus subgroup A, Long strain).
Experiment [7] concerns the target NS1 Y125A (human respiratory syncytial virus subgroup A, Long strain).
Experiment [8] has as its target NS1 K112A (human respiratory syncytial virus subgroup A, Long strain).

B1: MED25 ACID (aa 389–543) (domain or fragment)
chain: LGGQQSVSNKLLAWSGVLEWQEKPKPASVDANTKLTRSLPCQVYVNHGENLKTEQWPQKLIMQLIPQQLLTTLGPLFRNSRMVQFHFTNKDLESLKGLYRIMGNGFAGCVHFPHTAPCEVRVLMLLYSSKKKIFMGLIPYDQSGFVNGIRQVITN
With B1, the Kd came out at 2230 nM in experiment [1]; 44 nM in experiment [2]; 198 nM in experiment [3]; 1540 nM in experiment [4]; 606 nM in experiment [5]; 45 nM in experiment [6]. Besides, the Kd in experiment [7] is 80 nM; in experiment [8], 79 nM. Moreover, the dH in experiment [1] is -7.6 kcal/mol; in experiment [2], -10.1 kcal/mol; in experiment [3] it was -8.3 kcal/mol; in experiment [4], -7.7 kcal/mol; in experiment [5], -10.4 kcal/mol; in experiment [6] it was -10.7 kcal/mol. Besides, the dH in experiment [7] is -11.9 kcal/mol; in experiment [8] it was -10.7 kcal/mol. The stoichiometry N in experiment [1] amounted to 0.44; in experiment [2] it was 0.73; in experiment [3], 0.8; in experiment [4], 0.86; in experiment [5], 0.71; in experiment [6] it was 0.79. For the same molecule, the stoichiometry N was found to be 0.53 in experiment [7] and 0.66 in experiment [8].

The Kd is a measure of binding affinity in units of concentration. A lower Kd goes with higher affinity. The term stoichiometry N denotes the number of molecules, sites or subunits per partner or assembly.
